According to patent publication US20230203142A1, “TREATMENT OF METABOLIC DISORDERS THROUGH THE TARGETING OF A NOVEL CIRCULATING HORMONE COMPLEX” (The President and Fellows of Harvard College, priority 2020, published 2023):

Experiments:
[1] = molecular target: T1, recombinant ADK (Homo sapiens, UniProt P55263); assay: Recombinant kinase activity assay, ADK (Kinase-Glo); assay type: biochemical
T1 construct: purchased Novus Biologicals or R&D Systems NBP1-44382 or 8024-AK-025
Experimental: (§1) An on-bead kinase assay was developed to measure the activity of endogenous NDPK and ADK pulled down from serum using a-Ab or c-Ab conjugated beads. Both NDPK and ADK are bi-directional kinases that will produce ATP or ADP depending on the substrates provided (FIGS. 4B-C). Kinase activity assays were performed in 384-well plates in reaction buffer (PBS with 0.1% BSA, 0.01% F-127, 5 mM MgCl2). Experiments with recombinant proteins were performed at final concentrations of 40 μg/ml for ADK and FABP4, and 20 ug/ml for NDPK, and a reaction volume of 10 μl. Antibodies were used at a final concentration of 80 ug/ml. Substrates were added in equimolar ratios depending on the kinase being assayed and the direction of the reaction in serial dose responses, with the highest concentration of 5 μM. Proteins and substrates were incubated for 1 hr at room temperature, and ADP and ATP production were monitored using ADP-Glo and Kinase-Glo kits, respectively, according the manufacturer instructions (V6930 and V6711 Promega, USA). Luminescence was quantified using a SpectraMax Paradigm plate reader 30 min after the addition of substrate. Consistent with the MS results, ADK activity, as measured by generation of ATP, was specifically observed in samples pulled down with a-Ab but not c-Ab (FIG. 5A). […] To test this possibility, the ATP and ADP generating activity of recombinant ADK was assessed in the presence of the proposed complex components.

[2] = tested on: INS1 cells; assay: Glucose-stimulated insulin secretion (GSIS), INS1 cells; assay type: cell-based, rat
Experimental: This finding was recapitulated in both primary human islets from multiple non-diabetic donors (FIG. 6B), as well as INS1 cells (FIG. 6C). Human islets from review board approved healthy donors were isolated using the Edmonton protocol and provided by the IsletCore and Clinical Islet Laboratory (University of Alberta, Canada). Donors with a BMI<25 and HbA1c<6.0% were used for experiments. Islets were hand-picked three times and cultured at 37° C. in RPMI media with 10% FBS and 1% Penicillin/Streptomycin overnight before use. For INS1 cells, cells were plated at 8000 cells/well in 96-well plates and incubated overnight prior to experimentation. Insulin secretion assay was performed as above using 200 μl/well for each treatment. Cells were lysed using 80 μl ultrapure water and flash freezing. For siRNA experiments, INS1 cells were allowed to reach confluency before transfection of siRNA (Horizon Discovery; L-090381-02-0005) using Lipofectamine 3000 (Thermo Fischer; L3000015) according to manufacturer protocol for 48 hours prior to assays.
As additional controls, it was explored whether lipid binding was required for FABP4 action. […] FABP4 inhibitor studies were performed using BMS-309403 (10 nM; Sigma #BM0015).
To further elucidate the role of purinergic receptors in this signaling process, a potent and selective P2Y1 inhibitor, MRS2179 (Baurand et al., 2001) was utilized. […]

[3] = molecular target: T2, recombinant NDPK (Homo sapiens, UniProt P15531); assay: Recombinant kinase activity assay, NDPK (ADP-Glo/Kinase-Glo); assay type: biochemical
T2 construct: purchased Acro Biosystems NM1-H5147
T2 sequence (P15531 whole entry): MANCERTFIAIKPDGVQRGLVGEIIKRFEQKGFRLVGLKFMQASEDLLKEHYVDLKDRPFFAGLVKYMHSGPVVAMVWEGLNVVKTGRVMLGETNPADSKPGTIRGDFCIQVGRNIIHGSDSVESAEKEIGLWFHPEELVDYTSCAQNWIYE
Experimental: as §1

T1 sequence (P55263 whole entry): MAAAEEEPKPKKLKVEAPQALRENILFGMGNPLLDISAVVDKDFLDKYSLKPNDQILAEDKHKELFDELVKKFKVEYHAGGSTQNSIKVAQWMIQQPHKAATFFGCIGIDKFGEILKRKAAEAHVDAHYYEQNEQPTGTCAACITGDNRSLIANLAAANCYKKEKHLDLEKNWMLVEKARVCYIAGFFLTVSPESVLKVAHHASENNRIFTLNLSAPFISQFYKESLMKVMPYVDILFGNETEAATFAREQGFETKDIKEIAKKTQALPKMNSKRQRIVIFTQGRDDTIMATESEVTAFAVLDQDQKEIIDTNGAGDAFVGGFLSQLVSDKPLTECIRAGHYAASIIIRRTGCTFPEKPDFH

ADK activity to produce ATP ([1]; added to the NDPK-ADK/FABP4 complex, compared to the complex alone): no effect
ADK activity to generate ATP ([1]; recombinant ADK plus the added component): no effect
ADP producing capacity of NDPK ([3]; in the presence of the complex components): rescued
activity of NDPK to generate ADP ([3]; recombinant NDPK plus the added component): no effect
B1: a-Ab: monoclonal antibody previously reported as CA33; heavy chain SEQ ID NO 446, light chain SEQ ID NO 447; binds FABP4 and NDPK (antibody, listed as Homo sapiens)
heavy: QSVEESGGRLVTPGTPLTLTCTVSGFSLSTYYMSWVRQAPGKGLEWIGIIYPSGSTYCASWAKGRFTISKASTTVDLKITSPTTEDTATYFCARPDNDGTSGYLSGFGLWGQGLVTVSSAKTTPPSVYPLAPGSAAQTNSMVTLGCLVKGYFPEPVTVTWNSGSLSSGVHTFPAVLQSDLYTLSSSVTVPSSTWPSETVTCNVAHPASSTKVDKKIVPRDC
light: DVVMTQTPASVSEPVGGTVTIKCGASEDISRYLVWYQQKPGQPPKRLIYKASTLASGVPSRFKGSGSGTDFTLTISDLECDDAATYYCQCTYGTYAGSFFYSFGGGTEVVVERTDAAPTVSIFPPSSEQLTSGGASVVCFLNNFYPKDINVKWKIDGSERQNGVLNSWTDQDSKDCTYSMSSTLTLTKDEYERHNSYTCEATHKTSTSPIVKSFNRNEC
GSIS in the presence of the NDPK-ADK/FABP4 complex [2]: rescued
